Substitutions are numbered along the chain they refer to. Names may count otherwise. Values belong to the molecule of their own block, whether it stands above or below them.
What was measured:
[1] = molecular target: T1, his-tagged rhTLR4/MD2 (human, UniProt O00206 24-631; Q9Y6Y9 19-160); assay: pull-down on beads carrying TLR4/MD2, MALDI-TOF mass spectrometry of the eluate
T1 construct: Bought recombinant human complex (carrier free, R&D SYSTEMS), his-tagged; In the pull-down it was captured by anti-His antibody on Protein A/G agarose; in the ELISA it was coated on the plate; also called TLR4/MD2 complex; TRLR4/MD2
Description: Anti-His antibody (5 μL, 0.5 mg/mL, Invivogen) and his-tagged rhTLR4/MD2 (5 μL, 1 mg/mL, carrier free, R&D SYSTEMS) were mixed and coupled to Protein A/G Agarose (50 μl, Pierce, Thermo Scientific). Trypsin digested peptides of S100A9 were added for 3 h at 4° C. in the presence of 1 mM Calcium. After washing of the beads in HBS/1 mM Ca-buffer for three times bound peptidic fragments were eluted by addition of 10 mM TRIS/2 mM EDTA-buffer and analysed by ESI-QIT- and MALDI-TOF-mass spectrometry. Identical experiments were performed to analyze the binding of the chemical synthesized peptides of S100A9 (aa63-79), S100A8 (aa55-71) and the corresponding control peptides aa63-79 AS and aa55-71 A3.

[2] = molecular target: T1, his-tagged rhTLR4/MD2; assay: modified S100A9 ELISA, TLR4/MD2 coated on the plate, 2 ug/ml S100A9, absorbance at 450 nm
Description: Binding of S100A9 proteins to TLR4/MD2 was analysed by a modified S100A9-ELISA. Briefly, TLR4/MD2 was coupled to the wells of a 96-well plate and served as capturing molecule. After blocking of the unspecific binding sites by PBS/5% skim milk powder plates were washed three times. S100A9-wt or mutant S100A9 proteins were added at a concentration of 2 μg/ml each in the presence and absence of 100 μM Calcium and incubated for two hours at room temperature. Unbound S100A9 was removed by washing the plates for three times followed by the addition of a primary anti-S100A9-antibody (1 μg/ml, polyclonal, rabbit). After a washing step the secondary anti-rabbit-IgG-antibody coupled to HRP (1 μg/ml from Cell Signalling) was added. TMB was used as substrate for HRP to quantify binding by absorbance readings at 450 nm in an ELISA reader (Anthos Mirkosysteme).

[3] = system: human monocytes; assay: Stimulation of human monocytes, TNFα release quantified by ELISA; format: cell-based; details: human monocytes stimulated for four hours; TNFα by ELISA; FIG. 1
Source text: Using standard techniques known in the art, the inventors expressed the individual human proteins S100A8 and S100A9 in recombinant form, and purified them. After generating homodimers and heterodimers, they analysed the properties of the complexes. FIG. 1 illustrates the stimulation of human monocytes for four hours with the indicated concentrations of (A) recombinant human S100A8, recombinant human S100A9 or human S100A8/S100A9, and (B) recombinant human S100A8/S100A9, recombinant human S100A8/S100A9 (N69A) or S100A8/S100A9 (E78A). TNFα released into the culture medium was quantified by means of ELISA.
Monocytes were isolated from human buffy coats by Ficoll-Paque and subsequent Percoll density centrifugation (Pharmacia, Freiburg, Germany) Cells were cultured in Teflon bags (Biofolie 25; Heraeus Instruments, Hanau, Germany) using McCoy's 5a medium supplemented with 15% fetal calf serum for 1 day before stimulation. Monocytes were incubated for 4 hours with different dosis of hS100A8, hS100A9, hS100A8/S100A9 or the modified proteins as indicated in the figures and TNF-α concentrations in supernatants were determined by ELISA (OptEIA, BD Biosciences, Germany).
Release of cytokine TNF-α was measured in the culture supernatants by ELISA (OptEIA, BD Biosciences). […]

[4] = system: (S100A8/S100A9)2 tetramers; assay: Formation of (S100A8/S100A9)2 tetramers after site directed mutagenesis; parameters: species or system human; details: mutation in second calcium binding EF hand of S100A9
Description: For the expression of recombinant (rec) proteins without additional peptide sequences, the cDNAs from wt S100A8, wt S100A9 and the S100A9 EF-hand mutants were cloned into the pET11/20 vector [50-NdeI; 30-BamHI]. […] Bacteria were grown at 37° C. in 2×YT for 24 h. Afterwards bacteria were harvested, lysed and the inclusion bodies (IB) prepared. The IB pellet was dissolved in 8 M urea buffer and to establish proper refolding samples were adjusted to pH 2.0-2.5 first by adding hydrochloric acid. After 60 min incubation at room temperature, samples were stepwise dialyzed to get adapted to pH 7.4 for refolding in the presence of 2 mM DTT. After centrifugation (10 min, 60,000 g, 4° C.) to pellet aggregated material, samples were further dialyzed and applied to anion exchange column and gel filtration chromatography. To prepare heterodimeric complexes the recombinant proteins were mixed 1:1 in equimolar concentrations first. Samples were stored as stock solutions at −20° C. Correct refolding and complex formation was assessed by SDS-PAGE, CD spectroscopy, MALDI-MS and ESI-MS.

T1 sequence (O00206 24-631 limits assumed, chain 1 of 2): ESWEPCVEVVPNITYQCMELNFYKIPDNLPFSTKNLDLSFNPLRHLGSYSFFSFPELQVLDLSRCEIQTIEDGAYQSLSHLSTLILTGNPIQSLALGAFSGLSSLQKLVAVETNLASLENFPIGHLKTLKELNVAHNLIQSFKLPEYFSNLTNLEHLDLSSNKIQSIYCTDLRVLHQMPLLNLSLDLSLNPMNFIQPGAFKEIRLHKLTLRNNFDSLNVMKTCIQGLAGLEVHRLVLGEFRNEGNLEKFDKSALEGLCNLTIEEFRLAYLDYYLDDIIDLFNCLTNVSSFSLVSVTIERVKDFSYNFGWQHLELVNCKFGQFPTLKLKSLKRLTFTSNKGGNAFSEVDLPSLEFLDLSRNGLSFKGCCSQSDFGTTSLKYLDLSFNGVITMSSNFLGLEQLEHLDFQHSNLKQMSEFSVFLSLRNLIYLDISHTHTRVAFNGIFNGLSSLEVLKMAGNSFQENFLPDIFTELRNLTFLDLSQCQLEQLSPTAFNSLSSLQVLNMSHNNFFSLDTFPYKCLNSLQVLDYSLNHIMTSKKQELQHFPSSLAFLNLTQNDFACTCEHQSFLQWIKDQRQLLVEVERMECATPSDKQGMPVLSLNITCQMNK
T1 sequence (Q9Y6Y9 19-160 limits assumed, chain 2 of 2): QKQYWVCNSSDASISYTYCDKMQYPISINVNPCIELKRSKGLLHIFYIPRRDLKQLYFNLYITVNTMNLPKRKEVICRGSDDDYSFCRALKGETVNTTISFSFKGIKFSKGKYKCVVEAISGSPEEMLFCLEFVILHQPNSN

B3: S100A8/S100A9 (N69A): recombinant human S100A8/S100A9 with S100A9 EF hand II mutation N69A, prevents tetramer formation (protein)
chain 1: MLTELEKALNSIIDVYHKYSLIKGNFHAVYRDDLKKLLETECPQYIRKKGADVWFKELDINTDGAVNFQEFLILVIKMGVAAHKKSHEESHKE
chain 2: MTCKMSQLERNIETIINTFHQYSVKLGHPDTLNQGEFKELVRKDLQNFLKKENKNEKVIEHIMEDLDTAADKQLSFEEFIMLMARLTWASHEKMHEGDEGPGHHHKPGLGEGTP
activation of monocytes (TNFα released into the culture medium) [3]: activation of monocytes that is comparable to the activation caused by homodimers
tetramer formation [4]: inhibition of tetramer formation

B4: S100A8/S100A9 (E78A): recombinant human S100A8/S100A9 with S100A9 EF hand II mutation E78A, prevents tetramer formation (protein)
chain 1: B3 chain 1
chain 2: B3 chain 2 with A69N, E78A
activation of monocytes (TNFα released into the culture medium) [3]: activation of monocytes that is comparable to the activation caused by homodimers
tetramer formation [4]: inhibition of tetramer formation

Continued, values first:

binding result [1]: no binding
B1: control peptide 63-79 5A of S100A9 (E64A, D65A, K72A, Q73A, E77A) (peptide)
peptide: MAALDTNADAALSFAEF
notes: Chemically synthesized control peptide, molecular weight 1758 g/mol; Positions follow the numbering of full-length S100A9 ('nomenclature of S100A9 maintained'); also called 63-79 A5; 63-79 AS

binding result [2]: binds
B2: recombinant human S100A9 (wild type, homodimer) (ligand)
chain: B3 chain 2 with A69N
notes: Uniprot P06702; used as a homodimer; also called S100A9 wt; S100A9-wt
